From patent publication US20060140967A1 (US Dept. of Health and Human Services, published 2006)

B1: TARP-2-9 (peptide)
peptide: QMFPPSPL
notes: The limits should be checked against the listing

molecular target: T1, HLA-A2.1 molecules on TAP-deficient T2 cells (human); test: T2 binding assay, flow cytometry with anti-HLA-A2.1
T1 construct: MHC class I molecule on T2 cells; also called HLA-A2 molecules
Procedure: (§1) T2-binding assay. […] After washing, cells were stained with FITC-labeled goat anti-mouse Ig (PharMingen, San Diego, Calif.) and the level of HLA-A2.1 expression was measured by flow cytometry. HLA-A2.1 expression was quantified as fluorescence index (FI) according to the formula: FI=(mean fluorescence intensity with peptide-mean fluorescence intensity without peptide)/mean fluorescence intensity without peptide.
(§2) To determine HLA-A2.1 epitopes from the TARP, four different wild-type peptides were first predicted based on the anchor residues (FIG. 1B) and their binding affinities to HLA-A2.1 molecules were measured by the T2-binding assay.

Binder | binding result
FVALRNFSL [TARP-27-35 with substitution with Ala at position 3] | no binding
B1 | no binding
RLEHTFVFL [TARP-22-30] | no binding

molecular target: T1, HLA-A2.1 molecules on TAP-deficient T2 …; test: T2 binding assay, flow cytometry
Procedure: as §1

Binder | binding result
FLRNFSLML (also called wild-type peptide) [TARP-29-37] | binds
FLANFSLML [TARP-29-37-3A] | binds
FLRNFSLMV [TARP-29-37-9V] | binds
FLFLRNFSL [TARP-27-35-2L] | binds
FVFLRNFSV [TARP-27-35-9V] | binds

molecular target: T1, HLA-A2.1 molecules on TAP-deficient T2 …; test: T2 binding assay, flow cytometry; reference TARP-29-37
Procedure: as §1, §2

Binder | fold higher binding affinity than TARP-29-37
FVFLRNFSL [TARP-27-35] | ~10 fold
